Measured values reported in the supplement of paper PMC12042874.
± gives the uncertainty stated by the source.

Assay: amyloid nucleation score (Sup35N fusion, yeast selection) (log enrichment); library NNK3; higher = more nucleation; inactive = no reads after selection
In short: (§1)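 Psi-negative yeast expressed Sup35N fused to peptides of 20 random codons. They were induced 24 hours with 100 μM copper sulfate, grown 7 days at 30°C without adenine and uracil, and their plasmid inserts from input and output were Illumina-sequenced. The nucleation score is the DiMSum log enrichment of output over input reads, centred on the mode score of non-aggregating sequences. Sequences with under 100 input reads were excluded.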
With LMYMS the amyloid nucleation score was “inactive”.

Assay: amyloid nucleation score (Sup35N fusion, yeast selection) (log enrichment); library NNK1; higher = more nucleation; inactive = no reads after selection
In short: as §1
Substance LMYMS has an amyloid nucleation score of -0.11 ± 0.67. YMISNMVKVVFSSTDRNVGN showed an amyloid nucleation score of 5.935 ± 0.051. YMLWSVPRLWCRVWLPTVAC showed an amyloid nucleation score of 0.585 ± 0.64. For YMNLVLTDLAWSIWGG, the amyloid nucleation score was 3.62 ± 0.1. With YMPRSQIGSTSHVNWREMAE the amyloid nucleation score was -0.311 ± 0.33. YMVLVDLRTGRIHGSAGEKR showed an amyloid nucleation score of -0.174 ± 0.5. For YNCYNF, the amyloid nucleation score was 0.97 ± 0.69. YNQISLD showed an amyloid nucleation score of -0.38 ± 1.1. YNVSQLVLLNVFTCK showed an amyloid nucleation score of 7.459 ± 0.044. Work on YNVWVWCERGQC yielded an amyloid nucleation score of 4.5 ± 0.1. YNYREWFSLIYFCIWDITWS showed an amyloid nucleation score of -1.01 ± 0.41. YPAPPTNCLRQ showed an amyloid nucleation score of -0.449 ± 0.28. YPCCKICDYIKS showed an amyloid nucleation score of -0.018 ± 0.23. In the case of YPGRLRCSRVMSEFVLNSAL, the amyloid nucleation score is reported as -1.27 ± 0.68. For YQDFYMLSRLAKLGG, the amyloid nucleation score was 0.36 ± 0.61. In the case of YQQPEDCMFECTVVYSSKSR, the amyloid nucleation score is reported as -0.062 ± 0.26. Work on YQVYWSVSG yielded an amyloid nucleation score of -0.021 ± 0.51. YQYGAWNSANVSSNN gave an amyloid nucleation score of 1.19 ± 0.57. For YRAAQGHLASELYGLVTV, the amyloid nucleation score was 0.36 ± 0.69. Work on YRKRYDWWTVEAVLASVFGS yielded an amyloid nucleation score of 1.18 ± 0.57. Substance YRLVP has an amyloid nucleation score of -0.186 ± 0.46. With YRRGKIAWGSTARHETVFIL the amyloid nucleation score was 0.336 ± 0.52. In the case of YRSGSMLCNYPSRAVTVCWS, the amyloid nucleation score is reported as 1.16 ± 0.38. Substance YRWSLTLNLL has an amyloid nucleation score of -0.651 ± 0.47. YRYSSIF showed an amyloid nucleation score of -0.954 ± 1.4. With YSAALRHGQRHKWRSGRKIG the amyloid nucleation score was 0.674 ± 1.2. Substance YSADMFRADGLWFRGSRWG has an amyloid nucleation score of 0.308 ± 0.57. YSALVFRYGVISKGDLVTRR gave an amyloid nucleation score of 0.123 ± 0.36. YSCIYKWHECNNVNDNMK gave an amyloid nucleation score of 0.149 ± 0.46. With YSEYPSLLGRSSGMIDNFKG the amyloid nucleation score was 0.597 ± 0.28. Work on YSFIKCGSMCKEYKPCPTKL yielded an amyloid nucleation score of -0.11 ± 0.51. YSGNSIFLNLRSSCAYCGGD showed an amyloid nucleation score of 6.35 ± 0.081. For YSGRVTLWIVPMLHARH, the amyloid nucleation score was -0.114 ± 0.42. Work on YSMHKLSVFRRTYSVTISRT yielded an amyloid nucleation score of 0.591 ± 0.55. Substance YSPFYYVDI has an amyloid nucleation score of 1.61 ± 0.42. In the case of YSSLLVTLAEAWCIRLSNRR, the amyloid nucleation score is reported as 0.665 ± 0.84. YSSSRRDCRRPGTMYRPLPQ showed an amyloid nucleation score of -0.547 ± 0.55. YSVGFTCRMVTLSASWYWLW gave an amyloid nucleation score of 0.136 ± 0.32. YSVLNINLQFRSSLLGAFYP gave an amyloid nucleation score of 3.75 ± 0.063. With YSVLTFADLYMVSMS the amyloid nucleation score was “inactive”. YSVLVPIPLSCCISDVLYCT gave an amyloid nucleation score of 5.61 ± 0.064. Substance YSVMYMQSFFDKWLSTSAFR has an amyloid nucleation score of -1.17 ± 1.4. Work on YSWLVYNHNSDPGGSVCWSC yielded an amyloid nucleation score of 5.61 ± 0.065. YSYFWVAWF showed an amyloid nucleation score of 0.329 ± 0.4. In the case of YSYVRVIFYV, the amyloid nucleation score is reported as 0.145 ± 1. YTDAIYHPIPRTGMYSWC showed an amyloid nucleation score of -0.194 ± 0.34. In the case of YTEQACDSVP, the amyloid nucleation score is reported as -0.788 ± 0.89. In the case of YTLMLCNVASVDSWI, the amyloid nucleation score is reported as 5.05 ± 0.063. In the case of YTNGNIASTVLYLRPGYHLA, the amyloid nucleation score is reported as 1.06 ± 0.49. With YTNLAT the amyloid nucleation score was 0.251 ± 0.5. YTRMLLRGAIETGFYPNMLE showed an amyloid nucleation score of -1.2 ± 2.1. YTSGLFGF gave an amyloid nucleation score of -0.531 ± 0.37. For YTSIGI, the amyloid nucleation score was -0.144 ± 0.45. Work on YTTHLCLGAVSLYYVSGYTR yielded an amyloid nucleation score of 2.44 ± 0.13. YTVMVVI showed an amyloid nucleation score of 1.44 ± 0.4. YTVRGRDYNGAM gave an amyloid nucleation score of -1.3 ± 2.4. With YTWGRLGSEIKPARASMHLA the amyloid nucleation score was 1.08 ± 0.75. YVCFVQSCFYARQGHMSGEA gave an amyloid nucleation score of 0.165 ± 0.31. YVDDFPRQSAGFIDT showed an amyloid nucleation score of 2 ± 0.57. In the case of YVGAMCLTRGKVRRSEERN, the amyloid nucleation score is reported as 0.553 ± 0.54. For YVKISVLGSKIYNIS, the amyloid nucleation score was 5.38 ± 0.093. For YVLFFSPCT, the amyloid nucleation score was “inactive”. In the case of YVLMPWSFLLHGMRNLTAMS, the amyloid nucleation score is reported as “inactive”. YVMDYSD showed an amyloid nucleation score of 0.096 ± 0.61. Substance YVPGTNILLIIGEICQVPTD has an amyloid nucleation score of 2.18 ± 0.22. Work on YVQTLSNTECNAIANMHERF yielded an amyloid nucleation score of 0.641 ± 0.42. Work on YVRIVIAYFKFSKQFSSQLV yielded an amyloid nucleation score of 0.089 ± 0.22. Work on YVSLLYLLWLI yielded an amyloid nucleation score of -0.326 ± 0.32. For YWIFFNT, the amyloid nucleation score was 3.16 ± 0.13. In the case of YWIIKVRNRLVPRFFKYKGS, the amyloid nucleation score is reported as -0.491 ± 0.39. In the case of YWLLLSSENRECVLVTRRHR, the amyloid nucleation score is reported as -0.585 ± 1.7. In the case of YWLSTTIRYVCEVQATPCWI, the amyloid nucleation score is reported as -1.31 ± 2.7. For YWPGLGFMFDNYSI, the amyloid nucleation score was 0.555 ± 0.71. In the case of YWTSIHSLNTSIP, the amyloid nucleation score is reported as -0.229 ± 0.62. YWWDIRWGEAGSRERRVELG gave an amyloid nucleation score of 0.078 ± 0.53. Work on YWYFYISDRVKDNSCSNWSL yielded an amyloid nucleation score of -1.03 ± 0.47. In the case of YYEMIFSWVTPHSYRDTSYC, the amyloid nucleation score is reported as -0.733 ± 1.9. YYFRFCREVIARLGMDMSSK showed an amyloid nucleation score of -0.341 ± 0.29. In the case of YYNVYTTYTASVWGTYRWNV, the amyloid nucleation score is reported as -1.45 ± 0.82. For YYRKHFRLYIIIWDLFKI, the amyloid nucleation score was 0.282 ± 0.97. In the case of YYSFGRFKYTILL, the amyloid nucleation score is reported as -0.242 ± 0.6. In the case of YYSYMNCIMITISLLMLVLQ, the amyloid nucleation score is reported as -0.052 ± 0.21. Substance YYYYPNGDCEKK has an amyloid nucleation score of -0.657 ± 0.63.
